Reference: patent publication US20090203886A1 (OSAKA UNIVERSITY, published 2009)
“And” between values parts separate entries of the source, which are not always exact repeats. Equal values may be shown once.

Experiments:
human CD20 antigen [1] = target: T1, human CD20 antigen (human, UniProt P11836 1-297); assay: Scatchard analysis on Raji cells (Example 3), average over the clones of the construct
T1 construct: whole, on cells; also called CD20 on Raji cells; CD20/CHO cells
T1 sequence (looked up): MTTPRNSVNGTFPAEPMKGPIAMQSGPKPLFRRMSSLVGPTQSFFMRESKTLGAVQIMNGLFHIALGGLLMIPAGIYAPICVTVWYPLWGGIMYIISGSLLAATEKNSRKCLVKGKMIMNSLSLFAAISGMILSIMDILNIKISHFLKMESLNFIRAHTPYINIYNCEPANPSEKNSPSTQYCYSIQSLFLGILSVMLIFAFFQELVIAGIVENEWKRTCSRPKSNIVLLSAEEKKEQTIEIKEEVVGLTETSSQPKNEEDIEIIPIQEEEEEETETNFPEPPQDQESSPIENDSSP
Description: (§1) The reaction solution was 1% BSA-PBS solution with a cell number of 5×10⁶ cells and was injected into a 1.5 ml tube to a final volume of 100 μl. Three samples for each test antibody were prepared and four tubes to which antibody was not added were prepared as samples for background calculations.
(§2) After the detecting step, an image was digitized using image analysis software Image Quant (Amersham Bioscience) and analyzed using Excel (Microsoft). Average values for the same test antibodies were calculated and the values for background calculation samples (when only reacting a cell with a FITC-labeled secondary antibody) were subtracted from the test antibody values. The background values derived for the FITC-labeled secondary antibody binding non-specifically to cells, the PBS solution and the plate are omitted. At the same time, a standard curve was prepared by measuring the amount of fluorescence of only FITC-labeled secondary antibodies at amounts of 0, 12.5, 25, 50, 75, 100, 125, and 150 ng per 100 μl. In this manner, the number of moles of secondary antibody binding to cells was calculated. Assuming that each primary antibody and the FITC-labeled secondary antibody react at a ratio of […], the amount of cell-bound primary antibody was calculated. Primary antibody in suspension was calculated by subtracting the bound amount from the added amount. Scatchard analysis was performed using these values in order to calculate a dissociation constant Kd.

human CD20 antigen [2] = target: T1, human CD20 antigen; assay: Scatchard analysis on Raji cells, FITC anti human Fc secondary (Example 3)
Description: as §1, §2

human CD20 antigen [3] = target: T1, human CD20 antigen; assay: cell-based or functional assay

B1: humanized 1K1791 antibody as (AbbL x SdrH) (antibody, V domains shown)
VH: QIQLVQSGSELKKPGASVKVSCKASGYTFTNFGVNWVRQAPGKGLKWMGWINTYTGEPSYAQGFTGRFAFSLDASVSTAYLQISSLKAEDTATYFCTRRTNYYGTSYYYAMDYWGQGTTVTVSS
VL: STVMTQSPDSLAVSLGERATINCKSSQSVSNDVAWYQQKPGQSPKVLIYFASNRYSGVPDRFSGSGYGTDFTLTISSLQAEDVAVYFCQQDYSSPLTFGAGTKLEIK
notes: Kappa, gamma 1 construct; also called hz1791 as; As001
B1 was tested, and the Kd (human CD20 antigen [1]) was 11.7 nM and the Kd (human CD20 antigen [2]) was 11.9 nM and 11.5 nM.

B2: humanized 1K1791 antibody aa (AbbL x AbbH) (antibody, V domains shown)
VH: QIQLVQSGSELKKPGASVKVSCKASGYTFTNFGVNWVRQAPGKGLEWMGWINTYTGEPSYAQGFTGRFVFSLDASVSTAYLQISSLKAEDTATYFCTRRTNYYGTSYYYAMDYWGQGTTVTVSS
VL: STVMTQSPDSLAVSLGERATINCKSSQSVSNDVAWYQQKPGQSPKVLIYFASNRYSGVPDRFSGSGYGTDFTLTISSLQAEDVAVYFCQQDYSSPLTFGAGTKLEIK
notes: Whole humanized antibody from CHO cells; construct name ends kg1 (kappa, gamma 1); The two clones are producer clones of one construct; also called hz1791 aa; Aa008
For B2, the Kd (human CD20 antigen [1]) was 10.8 nM and the Kd (human CD20 antigen [2]) was 11.7 nM and 9.96 nM.

B3: humanized 1K1791 antibody af (AbbL x FraH) (antibody, V domains shown)
VH: QIQLVQSGSELKKPGASVKVSCKASGYTFTNFGVNWVKQAPGKGLKWMGWINTYTGEPSYADDFKGRFAFSLDASASTAYLQISSLKAEDMATYFCTRRTNYYGTSYYYAMDYWGQGTTVTVSS
VL: STVMTQSPDSLAVSLGERATINCKSSQSVSNDVAWYQQKPGQSPKVLIYFASNRYSGVPDRFSGSGYGTDFTLTISSLQAEDVAVYFCQQDYSSPLTFGAGTKLEIK
notes: Kappa, gamma 1 construct; also called hz1791 af; Af021
For B3, the Kd (human CD20 antigen [1]) was 7.76 nM and the Kd (human CD20 antigen [2]) was 6.84 nM and 8.67 nM.

B4: humanized 1K1791 antibody av (AbbL x VenH) (antibody, V domains shown)
VH: QIQLVQSGPELKKPGASVKISCKASGYTFTNFGVNWVKQAPGKGLKWMGWINTYTGEPSYADDFKGRFAFSLDASVSTAYLQISSLKAEDTSTYFCTRRTNYYGTSYYYAMDYWGQGTTVTVSS
VL: STVMTQSPDSLAVSLGERATINCKSSQSVSNDVAWYQQKPGQSPKVLIYFASNRYSGVPDRFSGSGYGTDFTLTISSLQAEDVAVYFCQQDYSSPLTFGAGTKLEIK
notes: Kappa, gamma 1 construct; also called hz1791 av; Av004
B4 was tested, and the Kd (human CD20 antigen [1]) was 9.94 nM and the Kd (human CD20 antigen [2]) was 10.7 nM and 9.17 nM.

B5: humanized 1K1791 antibody fa (FraL x AbbH) (antibody, V domains shown)
VH: QIQLVQSGSELKKPGASVKVSCKASGYTFTNFGVNWVRQAPGKGLEWMGWINTYTGEPSYAQGFTGRFVFSLDASVSTAYLQISSLKAEDTATYFCTRRTNYYGTSYYYAMDYWGQGTTVTVSS
VL: STVMTQSPSFLSASVGDRVTITCKASQSVSNDVAWYQQKPGQSPKVLIYFASNRYTGVPDRFSGSGYGTDFTLTISSLQAEDVAVYFCQQDYSSPLTFGAGTKLEIK
notes: Kappa, gamma 1 construct; also called hz1791 fa; Fa007
With B5 the Kd (human CD20 antigen [1]) was 10.1 nM and the Kd (human CD20 antigen [2]) was 11.3 nM and 8.83 nM.

B6: humanized 1K1791 antibody fs (FraL x SdrH) (antibody, V domains shown)
VH: QIQLVQSGSELKKPGASVKVSCKASGYTFTNFGVNWVRQAPGKGLKWMGWINTYTGEPSYAQGFTGRFAFSLDASVSTAYLQISSLKAEDTATYFCTRRTNYYGTSYYYAMDYWGQGTTVTVSS
VL: STVMTQSPSFLSASVGDRVTITCKASQSVSNDVAWYQQKPGQSPKVLIYFASNRYTGVPDRFSGSGYGTDFTLTISSLQAEDVAVYFCQQDYSSPLTFGAGTKLEIK
notes: Kappa, gamma 1 construct; also called hz1791 fs; Fs007
With B6 the Kd (human CD20 antigen [1]) was 8.71 nM and the Kd (human CD20 antigen [2]) was 6.33 nM and 11.1 nM.

B7: humanized 1K1791 antibody sa (SdrL x AbbH) (antibody, V domains shown)
VH: QIQLVQSGSELKKPGASVKVSCKASGYTFTNFGVNWVRQAPGKGLEWMGWINTYTGEPSYAQGFTGRFVFSLDASVSTAYLQISSLKAEDTATYFCTRRTNYYGTSYYYAMDYWGQGTTVTVSS
VL: STVMTQSPDSLAVSLGERATINCKSSQSNSNDVAWYQQKPGQSPKVLIYFASNRYSGVPDRFSGSGYGTDFTLTISSLQAEDVAVYFCQQDYSSPLTFGAGTKLEIK
notes: Kappa, gamma 1 construct; also called hz1791 sa; Sa023
With B7 the Kd (human CD20 antigen [1]) was 14.7 nM and the Kd (human CD20 antigen [2]) was 14.7 nM.

B8: chimerized 1K1791 antibody (c1791) (antibody, V domains shown)
VH: QIQLVQSGPELKKPGETVKISCKASGYTFTNFGVNWVKQAPGKGLKWMGWINTYTGEPSYADDFKGRFAFSLEASANTAYLQINNLKNDDMSTYFCTRRTNYYGTSYYYAMDYWGQGTSVTVSS
VL: STVMTQTPKFLLVSAGDRVTITCKASQSVSNDVAWYQQKPGQSPKVLIYFASNRYTGVPDRFTGSGYGTDFTFTINTVQAEDLAVYFCQQDYSSPLTFGAGTKLELK
With B8 the “CDC (10 ug/ml), RAJI” value (human CD20 antigen [3]) was 99 relative, c2B8 = 100, the “CDC (10 ug/ml), RC-K8” value (human CD20 antigen [3]) was 100 relative, c2B8 = 100 and the “CDC (10 ug/ml), SUDHL4” value (human CD20 antigen [3]) was 119 relative, c2B8 = 100. The “CDC (10 ug/ml), WIL2NS” value (human CD20 antigen [3]) was 529 relative, c2B8 = 100.
